Here are results for three molecules from publication PMC13480645 (PLOS Pathogens, 2026).

The target of experiment [1] is T1, HCoV-HKU1 S2 stem helix peptide (Human coronavirus HKU1, isolate N1, biotin on the N-terminus).
T1 chain: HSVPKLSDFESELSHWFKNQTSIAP
In words: BLI. Particulars: both partners purified.

Experiment [2] addresses T2, SARS-CoV-2 spike, full length, expressed on the cell surface (SARS-CoV-2, UniProt P0DTC2). Description: cell-based or functional assay.
In experiment [3] the target is T3, HCoV-HKU1 S2 stem helix peptide, biotinylated (Human coronavirus HKU1, isolate N1, biotin on the N-terminus).
T3 construct: also called HCoV-HKU1 stem helix peptide
T3 chain: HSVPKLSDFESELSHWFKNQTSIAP
In words: BLI. Particulars: both partners purified.

Experiment [4] deals with T2, SARS-CoV-2 spike, full length, …. In words: flow cytometry on cells. Particulars: one partner purified. A general note: Flow cytometry measures light scatter and fluorescence of single cells or particles in a stream.

B1: eCC65.1-12 (antibody, V domains shown)
VH: EVQLVQSGAEVKKPGASVKVSCKASGYTFTSQYMHWVRQAPGQGLEWMGIIDPSGGGTSYAQKFRDRVSMTRDTPTSTVYMELRSLRSEDTAVYYCASLWFENPSWRDYWGQGTLVTVSS
VL: DVVMTQSPGTLSLSPGERATLSCRASQTVNKNYLAWYQQKPGQAPRLLIYHASSRATGIPDRFSGSGSGTDFTLTISRLEPEDFAVYYCQQYGASPPLFTFGPGTKLEIK
A word on the Kd: it is the concentration at which binding is half-saturated. A high value points to lower affinity. Usually kon stands for the rate constant with which the complex forms. Turning to B1, in experiment [1], binding was put at a Kd of 129 pM and the association rate constant (kon) was found to be 301000 M⁻¹ s⁻¹.

B2: CC65.1 human monoclonal antibody (IgG) (antibody, V domains shown)
VH: EVQLVQSGAEVKKPGASVKVSCKASGYTFTSQYMHWVRQAPGQGLEWMGIIDPSGGGTSYAQKFRDRVSMTRDTPTSTVYMELRSLRSEDTAVYYCASLWFENPSWRDYWGQGTLVTVSS
VL: DVVMTQSPGTLSLSPGERATLSCRASQTVNSNYLAWYQQKPGQAPRLLIYRASSRATGIPDRFSGSGSGTDFTLTISRLEPEDFAVYYCQQYGSSPPLFTFGPGTKLEIK
In the case of B2, the “IC50 of neutralization of SARS-CoV-2 pseudovirus (HeLa-hACE2 cells)” value in experiment [2] turned out to be 6.16 µg/mL.

B3: engineered CC65.1 mAb eCC65.1-12 (IgG) (antibody, V domains shown)
VH: EVQLVQSGAEVKKPGASVKVSCKASGYTFTSQYMHWVRQAPGQGLEWMGIIDPSGGGTSYAQKFRDRVSMTRDTPTSTVYMELRSLRSEDTAVYYCASLWFENPSWRDYWGQGTLVTVSS
VL: DVVMTQSPGTLSLSPGERATLSCRASQTVNKNYLAWYQQKPGQAPRLLIYHASSRATGIPDRFSGSGSGTDFTLTISRLEPEDFAVYYCQQYGASPPLFTFGPGTKLEIK
notes: copies: 2 + 2
With B3, the “fold increase in affinity over parental CC65.1” value in experiment [3] was 6.7 fold. Also, the binding result in experiment [4] was “binds”.
